The values below come from the nanobody polyreactivity screen of Harvey et al. (2022).

The nature of this data set: yeast display, Sf9 membrane polyspecificity reagent, FACS + sequencing; frameworks hold sequencing errors. An outline of the steps: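 After 36–48 hours of galactose induction, yeast (Saccharomyces cerevisiae BJ5465) displaying a synthetic nanobody library were stained at 4 °C for 1 hour with 10% biotinylated, detergent-solubilized Sf9 membrane reagent. Streptavidin microbeads enriched the stained cells before FACS sorting into low and high (top ~1%) gates on anti-HA and streptavidin fluorescence. Each clone's polyreactivity label reflects its gate of origin.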
For the sequence “QVQLVESGGGLVQAGGSHRLSCAASGRTFSPNAMGWYRQAPGKERELVAAISYRSYRTYYADSVKGRFTISRDKAKNTVYLQMNSLKPEDTAVYYCNADRTRGFQRYDYWGQGTQVTVSS”, the “polyreactivity (PSR sort gate)” value is given as “high polyreactivity”.
As to “QVQLVESGGGLVQAGGSHRLSCAASGRTFSPYVMGWSREAPGKEREYVARITWSGGSTYYADSVKGRFTISRDNAMYTVYLQMNSLKPEDTAVYYCNARGVFYVYKHDYWGQGTQVTVSS”, the “polyreactivity (PSR sort gate)” value is recorded as “high polyreactivity”.
In the case of “QVQLVESGGGLVQAGGSHRLSCAASGRTFWKYVMGWYRQAPGTERELVAVISRPAGSTYYADSVKGRFTISRHNEKNTVYLQMNSLKPEDTAVYYCAKRPKNKPVLGDYDHWGQGTQVTVSS”, the “polyreactivity (PSR sort gate)” value is reported as “low polyreactivity”.
The same measure for “QVQLVESGGGLVQAGGSHRLSCAASGRTFWYTMGWYRQAPGKERELVAAITWSGGSTYYADSVKGRFTISRDNAMNTVYLQMNSLNPEDTAVYYWNAADYQLWFGYDYWGQGTQVTVSS”: “low polyreactivity”; for “QVQLVESGGGLVQAGGSHRLSCAASGSIFKDNAMGWYRQAPGKERELVAAITSGASTNYADSVKGRFTMSRDNAKNTVYLQMNSLKPEDTAVYYCAAGTRPTRFVGTKYDYWGQGTQVTVSS”: “low polyreactivity”; for “QVQLVESGGGLVQAGGSHRLSCAASGSIFRRYAMGWYRQAPGKERELVAAIDSGGNTYADSVKGRFTISRDNAKNTVYLQMISLQPEDTAVYYCSADGGEFSSYGYWGQGTQVTVSS”: “low polyreactivity”.
As for “QVQLVESGGGLVQAGGSHRLSCAASGSIFRWYAMGWYRQAPGKERELVAAITSGGGTNYADSVKGRFTISRDNAKNTVYIQMNCLKPEDTAVYYCNAAAWLRWGYRGGFWRYDYWGQGTQVTVSS”, the “polyreactivity (PSR sort gate)” value was “high polyreactivity”.
Then “QVQLVESGGGLVQAGGSHRLSCAASGSIFSYYAMGWYRPAPGKERELVAAISWGDDSTYYAASVKGRFTISRDNEKNTVYLHMNSLKPEDTAVYYCAADRVGWYRTFDYWGQGSQVTVSS”, with “low polyreactivity”.
Regarding “QVQLVESGGGLVQAGGSHRLSCAASGSIFYVNAMGWYRQSPGKERELVAAINRGGVSTYYADSVKGRFTISRDNAKNTVYLLMNSLKPEDTAVYYCATDFYLSTYSHYVWLYGYEFYYWGQGTQVTVSS”, the “polyreactivity (PSR sort gate)” value was “low polyreactivity”.
Then “QVQLVESGGGLVQAGGSHRLSCAASGSILEIYAMGWYRQAPGKEREFVASISWDVSSTYYADSVKGRFTISRDNAKNTVYLQMYSLKPEDPAVYYCATSLVWGLYDWYYDLSAAFDYWGQGTQVTVSS”, with “low polyreactivity”.
Then “QVQLVESGGGLVQAGGSHRLSCAASGSNAMGWYRQAHGKERELVAVITGGGSTHYADSVKGRYTISRDNAKNTVYLLMNSLKAEVTAVYYCAAVYWHSRGKFADIAVDYWGQGTQVTVSS”, with “low polyreactivity”; and “QVQLVESGGGLVQAGGSHRLSCAASGSTFTKNAMGWYRQAPGKERELVATISSGGYTNYADSVKGRFTISRDNAKNSVYLQMNSLKPEDTAVYYCNAVYRYRTRREYGYWGQGTQVTVSS”, with “high polyreactivity”.
The same measure for “QVQLVESGGGLVQAGGSHRLSCAASGSTFYYYAMGWYRQAPGKERELVAAISKSGGRTYYADSVKGRFTFSRDNAKNTVYLQMNSLKPEDTAVYYCNAVQYLNGYDYWGQGTQVTVSS”: “high polyreactivity”; for “QVQLVESGGGLVQAGGSHRLSCADSGRTFRTYAMGWYRQAPGKERELVAAITTSGSSTYYADSVKGRFTISRDNAKNTVYLQMNSLKPEDTAVYYCAAARSAIVPGYYSWGQGTQVTVSS”: “low polyreactivity”; for “QVQLVESGGGLVQAGGSHRLSCASSGRTFYRNAMGWYRQPPGKERELVAAISSGTSTNYADSVKGRFTISRDNAKNTVYLQMNSLKPEDTAVYYCAKERPRGAPAYYSRIYDYWGQGTQVTVSS”: “high polyreactivity”.
Turning to “QVQLVESGGGLVQAGGSHRLSCASSGSTFLPNAMGWYRQPPGKERELVAAITNSGGNTYADSVKGRFTISRDNAKNTVYLEMNSLKPEDTAVYYCNARFSPTGWARGNDYWGQGTQVTVSS”, the “polyreactivity (PSR sort gate)” value is listed as “low polyreactivity”.
Consider “QVQLVESGGGLVQAGGSHRLSCSASGQTFVKNAMGWYRQAPGKERELVAAITVSGSRTYYADSVKGRFTISRDNAKNTVYLQMNSLKPEDTAVYYCAAKTADRFAPYYYWGQGTQVTVSS”, for which the “polyreactivity (PSR sort gate)” value is “high polyreactivity”.
Then “QVQLVESGGGLVQAGGSHRLSSAASARIFAVNVMGWYRQAPGKERELVAAISWSDDIKYYADSVKGRFTISRDNAKNTVYLQMNSLKPEDTAVYYCAADFLPLHADDDDEDYWGQGTQVTVST”, with “high polyreactivity”; and “QVQLVESGGGLVQAGGSHRLSSAASGGIFGKYAMGWYRQAPGKEMDLVAAITWNGGRTYYADSVKGRFTISRDNAKYTLYLQMNSLKPVDTAVHFCAVDDAYPDRYDYWGQGSQVTVSS”, with “high polyreactivity”.
Then “QVQLVESGGGLVQAGGSHRVSCAASGYIFLHYAMGWYRQATGKEREFVAAITYSGGNTYYADSVKGRFTISRDNAKNTVYLQMISLKPEDTAGYYCAKTRIYSKHWTEPYFYRVDSWGQGTQVTVSS”, with “high polyreactivity”; and “QVQLVESGGGLVQAGGSIRFSCAASGRIFAHYAMGWYRPAPGKERELVAAISSSGTRTYYADSVKGRFTISRDNAKNTVYLQMNSLKPEDTAVFYCAKDSYHTVWGGYWGQGTQVTVSS”, with “high polyreactivity”; and “QVQLVESGGGLVQAGGSIRLRCAASGITFYYYAMGWYRQAPAKERELVAAISRSGITYYADSVKGRFTISRDNAKNSVYLQMNSLKPEDTAVYYGAAGRRFDQSMYYGGQGTQVTVSS”, with “high polyreactivity”.
The same measure for “QVQLVESGGGLVQAGGSIRLSCAASGFIFKWYAMGWYRQAPGKERELVAVINRSGSTYYADSVKGRFTISRDNAKNTVYLQMNSLKPEDTAVYYCAAVQQYSSVYYYTYDYWGQGTQVTVSS”: “high polyreactivity”; for “QVQLVESGGGLVQAGGSIRLSCAASGFIFWANAMGWYIQAPGKERELVAAISGSGGRTYYADSVKGRFTISRDNAKNTVYLQMNSLKPEDTAVYYCAAKVSAWKKKSEMNYWGQGTQVTVSS”: “high polyreactivity”; for “QVQLVESGGGLVQAGGSIRLSCAASGFNFRWYAMGWYRQAPGKERELVAAIRSGGSTNYADSVKGRFTIARDNAKNTVSLQMNSLKPEDRAVYYCAAERTSYYYSNDYWGQGTQVTVSS”: “high polyreactivity”.
With “QVQLVESGGGLVQAGGSIRLSCAASGGTFSYYAMGWYRQAPGKESELVAAISGNGDTTYYADSVKGRFTISRDNAKNTDYVQMNSLKPEDTAVYYCATAFSYGGGAYDYWGQGTLVTVSS”, the “polyreactivity (PSR sort gate)” value is “low polyreactivity”.
Then “QVQLVESGGGLVQAGGSIRLSCAASGIIFLGNAMGWYRQAPGIERELVAAITASGTTSYYADSVKGRFTISRDNAKNTVSLQMNSLKPEDTAVDYCAAQSTWYDFYYWVQGTQVTVSS”, with “low polyreactivity”; and “QVQLVESGGGLVQAGGSIRLSCAASGITFYKYAMGWYRQAPGKERELVAAISGNGGSTYYADSVKGRFTISRDYAKNTVYLQMNSLKPEDTAVYFCNRGYRRTDNYWGQGTQVTVSS”, with “high polyreactivity”.
Turning to “QVQLVESGGGLVQAGGSIRLSCAASGITFYRNAMGWYRQAPGKEKELVAAITWNGGRTYYADSVKGRFTISRDNAKNTVYLQMNSLKPEDTAVYYCAAAYPTYRHYYWGQGTQVTVSS”, the “polyreactivity (PSR sort gate)” value was “low polyreactivity”.
Then “QVQLVESGGGLVQAGGSIRLSCAASGRIFAYNPMGWSRQAPGKERELVAVITSGRSTNYADSVKGRFTISRDNEKNNVYLQMNSLKPVDTAFYYCAKRPYGRSGGSRYDYWGQGTQGTVSS”, with “high polyreactivity”; and “QVQLVESGGGLVQAGGSIRLSCAASGRIFGRYAMGWYRQAPGKEMELVATITWRGGITYYADSVKGRFTISRDNAKNTVYLQLKRLKPEDNAVYYCAAGYGRIPYEYWGQGTQVTVSS”, with “high polyreactivity”.
Then “QVQLVESGGGLVQAGGSIRLSCAASGRTFKKYAMGWYRQAPGKERELVAAITGSGGSTYYADSVKGRFTISRDNAKNTVYLQINSLKPEDTAVYYCAAYAYGVGHSQDGGNYWGQGNQVTVSS”, with “low polyreactivity”.
Then “QVQLVESGGGLVQAGGSIRLSCAASGSIFTINTMGWYRQAPGKERELVAAISKRGGSTYYADSVKGRFTISRDNAKNTVYLQKNSLKPEDTAVYYCAARQFYKYYYWGQGTQVTVSS”, with “high polyreactivity”; and “QVQLVESGGGLVQAGGSIRLSCAASGSIYKSNTMGRYRQAPGKEREFVAAISWGGGSTYYADSVKGRFTISRDNAKHTVYLQMNSLKPEDTAVYYCATRPGTRPAYDYWGQGTQVTVSS”, with “high polyreactivity”; and “QVQLVESGGGLVQAGGSIRLSCAASGSTFYLYAMGWSRPAPGKERELVATITNGGGTNYADSVKGRFTISRDNEKNTVYIQMNTLKPEDTAVYYCAATWYHRDGDYWGQGTQVTVSS”, with “low polyreactivity”.
For the sequence “QVQLVESGGGLVQAGGSISLSCAASGYIFHVYAMGWYRQAPGKERELVAAITSSGGSTYYADSVKGRFTISRDNAKNTVYLQMNSLKPEDTAVYYCAAAPCSFRYRYVVFTFGYWGQGTQVTVSS”, the “polyreactivity (PSR sort gate)” value is recorded as “high polyreactivity”.
The same measure for “QVQLVESGGGLVQAGGSLCLSCAASGIFVYNAMGWYRQAPGKEREFVAAINKSGASTFYADSVKGRFTISRDNAKNTVYLQMNSLKPEDTAVYYCRERDYWGQGTQVTVSS”: “low polyreactivity”; for “QVQLVESGGGLVQAGGSLGLSCAASGFIFDAYAMGWYRQAPGKERELVAGISIGGRTNYADSVKGRFTISRDNAKNTVYLQMNSLKPEDTAVYYCAARNYRYYYGSYYRGPITNYEYWGQGTQVTVSS”: “low polyreactivity”; for “QVQLVESGGGLVQAGGSLGLSCAASGGILQSYAMGWYRQAPGKERELVATITYSAGSTYYADSVKGRFTISRDNAKNTVYLQMKSLKPEDTAVYVCAARRIPPARYKGYYYWGQGTQLTVSS”: “high polyreactivity”.
For “QVQLVESGGGLVQAGGSLGLSCAASGIIFGKYAMGWYRQAPGKERELVASITVDGGTTYYADSVKGLFTISRDNANNTVYLQMNSLKPEDTAVYYCATGVFAELWFDYWPYDYWGQGTQVTVSS”, the “polyreactivity (PSR sort gate)” value is “high polyreactivity”.
Then “QVQLVESGGGLVQAGGSLGLSCAASGITFYTYPMGLYRQAPGKERELVAAISRRGGSTYYADSVKGRFTISRDNAKNTVYLHLNSLKPEDTAVYYCNAVADCYSGFDGYYYWGQGTQVTVSS”, with “high polyreactivity”.
